B1: Cnn (natural protein)
chain: MNSNRTSSSHNSRNLKILNASFDVPRPPGGGNSPLPSQGRSVRELEEQMSALRKENFNLKLRIYFLEEGQPGARADSSTESLSKQLIDAKIEIATLRKTVDVKMELLKDAARAISHHEELQRKADIDSQAIIDELQEQIHAYQMAESGGQPVENIAKTRKMLRLESEVQRLEEELVNIEARNVAARNELEFMLAERLESLTACEGKIQELAIKNSELVERLEKETASAESSNEAIDSLKVELEACRKENQDLVTSIRTLKHDMKRQVRSMKEAANTMDVQRQSILLLEATIKRKEKSCGSMQKNVLNYEALIAKLNAELETMRQQNVYFRELSENLQQKEVRQLDRGVAIVQPMRMTADAGRFVWQSGTIVAQEPLPLERQSAAATSNVSVSAVRLSSGPPPDQTYPVNGHDRAKYGLLQLFAAKLDWISAVPLALGHLALKIILLAMRLHSCLQNVHIPLRANRDLGAQLADKICELQEAQEKLKERERIHEQACRTIQKLMQKLSSQEKEIKKLNQENEQSANKENDCAKTVISPSSSGRSMSDNEASSQEMSTNLRVRYELKINEQEEKIKQLQTEVKKKTANLQNLVNKELWEKNREVERLTKLLANQQKTLPQISEESAGEADLQQSFTEAEYMRALERNKLLQRKVDVLFQRLADDQQNSAVIGQLRLELQQARTEVETADKWRLECVDVCSVLTNRLEELAGFLNSLLKHKDVLGVLAADRRNAMRKAVDRSLDLSKSLNMTLNITATSLADQSLAQLCNLSEILYTEGDASHKTFNSHEELHAATSMAPTVENLKAENKALKKELEKRRSSEGQRKERRSLPLPSQQFDNQSESEAWSEPDRKVSLARIGLDETSNSLAAPEQAISESESEGRTCATRQDRNRNSERIAQLEEQIAQKDERMLNVQCQMVELDNRYKQEQLRCLDITQQLEQLRAINEALTADLHAIGSHEEERMVELQRQLELKNQQIDQLKLAHSTLTADSQITEMELQALQQQMQEIEQLHADSVETLQSQLQKLKLDAVQQLEEHERLHREALERDWVALTTYQEQAQQLLELQRSLDYHQENEKELKQTLVENELATRALKKQLDESTLQASKAVMERTKAYNDKLQLEKRSEELRLQLEALKEEHQKLLQKRSNSSDVSQSGYTSEEVAVPMGPPSGQATTCKQAAAAVLGQRVNTSSPDLGIESDAGRISSVEVSNAQRAMLKTVEMKTEGSASPKAKSEESTSPDSKSNVATGAATVHDCAKVDLENAELRRKLIRTKRAFEDTYEKLRMANKAKAQVEKDIKNQILKTHNVLRNVRSNMENEL

target: Sas-4-NΔT GST (Drosophila) (UniProt Q9VI72); experiment: pull-down

Question: “Asl (from UniProt Q9VNE4 1-994) (natural protein)” was tested. Which fold amount pulled down relative to Sas-4-N did it give?
Answer: 3 times

Question: How did the fold amount pulled down relative to Sas-4-N turn out when “γ-tubulin (from UniProt P23257 1-475) (natural protein)” was run?
Answer: 3 times

Question: For Grip128 (natural protein), which fold amount pulled down relative to Sas-4-N is on record?
Answer: 3 times

Question: B1 was tested. Which fold amount pulled down relative to Sas-4-N did it give?
Answer: 3 times

Reference: publication PMC3411905
